B1: U4/U6 small nuclear ribonucleoprotein Prp3 (Homo sapiens), O43395 (parent)
chain: MALSKRELDELKPWIEKTVKRVLGFSEPTVVTAALNCVGKGMDKKKAADHLKPFLDDSTLRFVDKLFEAVEEGRSSRHSKSSSDRSRKRELKEVFGDDSEISKESSGVKKRRIPRFEEVEEEPEVIPGPPSESPGMLTKLQIKQMMEAATRQIEERKKQLSFISPPTPQPKTPSSSQPERLPIGNTIQPSQAATFMNDAIEKARKAAELQARIQAQLALKPGLIGNANMVGLANLHAMGIAPPKVELKDQTKPTPLILDEQGRTVDATGKEIELTHRMPTLKANIRAVKREQFKQQLKEKPSEDMESNTFFDPRVSIAPSQRQRRTFKFHDKGKFEKIAQRLRTKAQLEKLQAEISQAARKTGIHTSTRLALIAPKKELKEGDIPEIEWWDSYIIPNGFDLTEENPKREDYFGITNLVEHPAQLNPPVDNDTPVTLGVYLTKKEQKKLRRQTRREAQKELQEKVRLGLMPPPEPKVRISNLMRVLGTEAVQDPTKVEAHVRAQMAKRQKAHEEANAARKLTAEQRKVKKIKKLKEDISQGVHISVYRVRNLSNPAKKFKIEANAGQLYLTGVVVLHKDVNVVVVEGGPKAQKKFKRLMLHRIKWDEQTSNTKGDDDEESDEEAVKKTNKCVLVWEGTAKDRSFGEMKFKQCPTENMAREHFKKHGAEHYWDLALSESVLESTD
partner: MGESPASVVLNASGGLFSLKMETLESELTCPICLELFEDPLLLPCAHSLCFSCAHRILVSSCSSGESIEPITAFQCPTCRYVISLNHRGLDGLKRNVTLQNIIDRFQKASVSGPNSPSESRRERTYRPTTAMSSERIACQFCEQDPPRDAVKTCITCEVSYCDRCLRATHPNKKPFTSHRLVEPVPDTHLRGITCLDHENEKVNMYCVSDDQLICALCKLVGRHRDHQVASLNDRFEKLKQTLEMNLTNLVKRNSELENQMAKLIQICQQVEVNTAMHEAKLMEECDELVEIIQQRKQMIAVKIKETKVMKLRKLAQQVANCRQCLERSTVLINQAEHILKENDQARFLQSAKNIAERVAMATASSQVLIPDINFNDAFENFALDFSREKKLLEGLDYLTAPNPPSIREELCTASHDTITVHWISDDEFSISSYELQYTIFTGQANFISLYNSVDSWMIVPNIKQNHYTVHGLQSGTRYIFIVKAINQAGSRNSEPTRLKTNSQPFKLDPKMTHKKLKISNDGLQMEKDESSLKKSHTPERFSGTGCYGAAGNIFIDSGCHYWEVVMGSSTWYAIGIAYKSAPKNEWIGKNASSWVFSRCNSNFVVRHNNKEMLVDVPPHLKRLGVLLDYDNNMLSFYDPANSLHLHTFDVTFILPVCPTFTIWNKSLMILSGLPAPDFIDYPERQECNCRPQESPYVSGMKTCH
B2: Bleomycin hydrolase (Homo sapiens), Q13867 (parent)
chain: MSSSGLNSEKVAALIQKLNSDPQFVLAQNVGTTHDLLDICLKRATVQRAQHVFQHAVPQEGKPITNQKSSGRCWIFSCLNVMRLPFMKKLNIEEFEFSQSYLFFWDKVERCYFFLSAFVDTAQRKEPEDGRLVQFLLMNPANDGGQWDMLVNIVEKYGVIPKKCFPESYTTEATRRMNDILNHKMREFCIRLRNLVHSGATKGEISATQDVMMEEIFRVVCICLGNPPETFTWEYRDKDKNYQKIGPITPLEFYREHVKPLFNMEDKICLVNDPRPQHKYNKLYTVEYLSNMVGGRKTLYNNQPIDFLKKMVAASIKDGEAVWFGCDVGKHFNSKLGLSDMNLYDHELVFGVSLKNMNKAERLTFGESLMTHAMTFTAVSEKDDQDGAFTKWRVENSWGEDHGHKGYLCMTDEWFSEYVYEVVVDRKHVPEEVLAVLEQEPIILPAWDPMGALAE
B3: 2'-5'-oligoadenylate synthase 1 (Homo sapiens), P00973-2 (parent)
chain: MMDLRNTPAKSLDKFIEDYLLPDTCFRMQINHAIDIICGFLKERCFRGSSYPVCVSKVVKGGSSGKGTTLRGRSDADLVVFLSPLTTFQDQLNRRGEFIQEIRRQLEACQRERAFSVKFEVQAPRWGNPRALSFVLSSLQLGEGVEFDVLPAFDALGQLTGGYKPNPQIYVKLIEECTDLQKEGEFSTCFTELQRDFLKQRPTKLKSLIRLVKHWYQNCKKKLGKLPPQYALELLTVYAWERGSMKTHFNTAQGFRTVLELVINYQQLCIYWTKYYDFKNPIIEKYLRRQLTKPRPVILDPADPTGNLGGGDPKGWRQLAQEAEAWLNYPCFKNWDGSPVSSWILLVRPPASSLPFIPAPLHEA
B4: Zinc finger CCHC domain-containing protein 12 (Homo sapiens), Q6PEW1 (parent)
chain: MASIIARVGNSRRLNAPLPPWAHSMLRSLGRSLGPIMASMADRNMKLFSGRVVPAQGEETFENWLTQVNGVLPDWNMSEEEKLKRLMKTLRGPAREVMRVLQATNPNLSVADFLRAMKLVFGESESSVTAHGKFFNTLQAQGEKASLYVIRLEVQLQNAIQAGIIAEKDANRTRLQQLLLGGELSRDLRLRLKDFLRMYANEQERLPNFLELIRMVREEEDWDDAFIKRKRPKRSESMVERAVSPVAFQGSPPIVIGSADCNVIEIDDTLDDSDEDVILVESQDPPLPSWGAPPLRDRARPQDEVLVIDSPHNSRAQFPSTSGGSGYKNNGPGEMRRARKRKHTIRCSYCGEEGHSKETCDNESDKAQVFENLIITLQELTHTEMERSRVAPGEYNDFSEPL
B5: U4/U6 small nuclear ribonucleoprotein Prp31 (Homo sapiens), Q8WWY3 (parent)
chain: MSLADELLADLEEAAEEEEGGSYGEEEEEPAIEDVQEETQLDLSGDSVKTIAKLWDSKMFAEIMMKIEEYISKQAKASEVMGPVEAAPEYRVIVDANNLTVEIENELNIIHKFIRDKYSKRFPELESLVPNALDYIRTVKELGNSLDKCKNNENLQQILTNATIMVVSVTASTTQGQQLSEEELERLEEACDMALELNASKHRIYEYVESRMSFIAPNLSIIIGASTAAKIMGVAGGLTNLSKMPACNIMLLGAQRKTLSGFSSTSVLPHTGYIYHSDIVQSLPPDLRRKAARLVAAKCTLAARVDSFHESTEGKVGYELKDEIERKFDKWQEPPPVKQVKPLPAPLDGQRKKRGGRRYRKMKERLGLTEIRKQANRMSFGEIEEDAYQEDLGFSLGHLGKSGSGRVRQTQVNEATKARISKTLQRTLQKQSVVYGGKSTIRDRSSGTASSVAFTPLQGLEIVNPQAAEKKVAEANQKYFSSMAEFLKVKGEKSGLMST
partner: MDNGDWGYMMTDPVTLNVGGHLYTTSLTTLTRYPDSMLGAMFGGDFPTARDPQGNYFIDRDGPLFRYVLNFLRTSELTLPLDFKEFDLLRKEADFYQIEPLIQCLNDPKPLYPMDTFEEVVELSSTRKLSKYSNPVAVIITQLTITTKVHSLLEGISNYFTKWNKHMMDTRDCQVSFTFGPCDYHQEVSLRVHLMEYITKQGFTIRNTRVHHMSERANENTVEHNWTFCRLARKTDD
B6: Mothers against decapentaplegic homolog 3 (Homo sapiens), P84022 (parent)
chain: MSSILPFTPPIVKRLLGWKKGEQNGQEEKWCEKAVKSLVKKLKKTGQLDELEKAITTQNVNTKCITIPRSLDGRLQVSHRKGLPHVIYCRLWRWPDLHSHHELRAMELCEFAFNMKKDEVCVNPYHYQRVETPVLPPVLVPRHTEIPAEFPPLDDYSHSIPENTNFPAGIEPQSNIPETPPPGYLSEDGETSDHQMNHSMDAGSPNLSPNPMSPAHNNLDLQPVTYCEPAFWCSISYYELNQRVGETFHASQPSMTVDGFTDPSNSERFCLGLLSNVNRNAAVELTRRHIGRGVRLYYIGGEVFAECLSDSAIFVQSPNCNQRYGWHPATVCKIPPGCNLKIFNNQEFAALLAQSVNQGFEAVYQLTRMCTIRMSFVKGWGAEYRRQTVTSTPCWIELHLNGPLQWLDKVLTQMGSPSIRCSSVS
partner: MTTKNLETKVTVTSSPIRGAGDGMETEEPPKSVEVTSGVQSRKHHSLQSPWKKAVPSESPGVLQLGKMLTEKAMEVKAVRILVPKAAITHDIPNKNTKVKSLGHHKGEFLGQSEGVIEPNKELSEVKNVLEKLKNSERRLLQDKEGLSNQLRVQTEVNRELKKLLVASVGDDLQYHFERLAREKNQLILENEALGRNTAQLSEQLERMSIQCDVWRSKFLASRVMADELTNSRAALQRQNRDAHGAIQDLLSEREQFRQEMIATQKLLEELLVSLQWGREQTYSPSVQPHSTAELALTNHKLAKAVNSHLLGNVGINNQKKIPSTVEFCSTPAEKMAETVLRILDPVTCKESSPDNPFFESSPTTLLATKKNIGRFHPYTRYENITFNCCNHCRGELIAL
B7: Adiponectin (Homo sapiens), Q15848 (parent)
chain: MLLLGAVLLLLALPGHDQETTTQGPGVLLPLPKGACTGWMAGIPGHPGHNGAPGRDGRDGTPGEKGEKGDPGLIGPKGDIGETGVPGAEGPRGFPGIQGRKGEPGEGAYVYRSAFSVGLETYVTIPNMPIRFTKIFYNQQNHYDGSTGKFHCNIPGLYYFAYHITVYMKDVKVSLFKKDKAMLFTYDQYQENNVDQASGSVLLHLEVGDQVWLQVYGEGERNGLYADNDNDSTFTGFLLYHDTN
partner: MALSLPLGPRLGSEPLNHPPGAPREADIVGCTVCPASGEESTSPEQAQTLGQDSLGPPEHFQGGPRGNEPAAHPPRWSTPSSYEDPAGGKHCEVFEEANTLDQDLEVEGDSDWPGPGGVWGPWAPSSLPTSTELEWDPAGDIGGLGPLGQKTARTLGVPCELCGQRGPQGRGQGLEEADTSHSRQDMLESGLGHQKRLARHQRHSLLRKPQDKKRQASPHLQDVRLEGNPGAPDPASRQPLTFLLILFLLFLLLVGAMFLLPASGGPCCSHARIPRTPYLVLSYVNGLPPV
B8: TERF1-interacting nuclear factor 2 (Homo sapiens), Q9BSI4 (parent)
chain: MATPLVAGPAALRFAAAASWQVVRGRCVEHFPRVLEFLRSLRAVAPGLVRYRHHERLCMGLKAKVVVELILQGRPWAQVLKALNHHFPESGPIVRDPKATKQDLRKILEAQETFYQQVKQLSEAPVDLASKLQELEQEYGEPFLAAMEKLLFEYLCQLEKALPTPQAQQLQDVLSWMQPGVSITSSLAWRQYGVDMGWLLPECSVTDSVNLAEPMEQNPPQQQRLALHNPLPKAKPGTHLPQGPSSRTHPEPLAGRHFNLAPLGRRRVQSQWASTRGGHKERPTVMLFPFRNLGSPTQVISKPESKEEHAIYTADLAMGTRAASTGKSKSPCQTLGGRALKENPVDLPATEQKENCLDCYMDPLRLSLLPPRARKPVCPPSLCSSVITIGDLVLDSDEEENGQGEGKESLENYQKTKFDTLIPTLCEYLPPSGHGAIPVSSCDCRDSSRPL
B9: Neutrophil cytosol factor 2 (Homo sapiens), P19878 (parent)
chain: MSLVEAISLWNEGVLAADKKDWKGALDAFSAVQDPHSRICFNIGCMYTILKNMTEAEKAFTRSINRDKHLAVAYFQRGMLYYQTEKYDLAIKDLKEALIQLRGNQLIDYKILGLQFKLFACEVLYNIAFMYAKKEEWKKAEEQLALATSMKSEPRHSKIDKAMECVWKQKLYEPVVIPVGKLFRPNERQVAQLAKKDYLGKATVVASVVDQDSFSGFAPLQPQAAEPPPRPKTPEIFRALEGEAHRVLFGFVPETKEELQVMPGNIVFVLKKGNDNWATVMFNGQKGLVPCNYLEPVELRIHPQQQPQEESSPQSDIPAPPSSKAPGRPQLSPGQKQKEEPKEVKLSVPMPYTLKVHYKYTVVMKTQPGLPYSQVRDMVSKKLELRLEHTKLSYRPRDSNELVPLSEDSMKDAWGQVKNYCLTLWCENTVGDQGFPDEPKESEKADANNQTTEPQLKKGSQVEALFSYEATQPEDLEFQEGDIILVLSKVNEEWLEGECKGKVGIFPKVFVEDCATTDLESTRREV

Variants of: B1
Settings: with MID2, Q9UJV3-2

| Variant | effect of a mutation on the interaction |
| --- | --- |
| A489D | with no effect |
| P493S | with no effect |

Variants of: B2
Settings: with nud12_human NUDT12, Q9BQG2
Sequence of nud12_human NUDT12, Q9BQG2 (Q9BQG2 whole entry): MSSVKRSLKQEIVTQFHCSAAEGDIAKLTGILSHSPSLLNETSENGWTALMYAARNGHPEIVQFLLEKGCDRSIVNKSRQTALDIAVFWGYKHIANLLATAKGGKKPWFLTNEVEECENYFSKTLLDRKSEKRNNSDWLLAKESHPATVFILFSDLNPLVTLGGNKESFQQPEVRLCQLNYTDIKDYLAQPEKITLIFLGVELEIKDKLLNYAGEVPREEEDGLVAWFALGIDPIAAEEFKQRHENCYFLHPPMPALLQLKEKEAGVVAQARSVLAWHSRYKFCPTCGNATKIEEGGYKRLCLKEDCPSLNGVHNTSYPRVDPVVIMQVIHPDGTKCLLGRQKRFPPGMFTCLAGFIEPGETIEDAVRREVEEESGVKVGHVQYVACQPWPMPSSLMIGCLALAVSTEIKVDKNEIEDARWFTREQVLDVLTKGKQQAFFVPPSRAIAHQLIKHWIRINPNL

| Variant | effect of a mutation on the interaction |
| --- | --- |
| I443V | with no effect |

Variants of: B3
Settings: with exoc5_human EXOC5, O00471
Sequence of exoc5_human EXOC5, O00471 (O00471 whole entry): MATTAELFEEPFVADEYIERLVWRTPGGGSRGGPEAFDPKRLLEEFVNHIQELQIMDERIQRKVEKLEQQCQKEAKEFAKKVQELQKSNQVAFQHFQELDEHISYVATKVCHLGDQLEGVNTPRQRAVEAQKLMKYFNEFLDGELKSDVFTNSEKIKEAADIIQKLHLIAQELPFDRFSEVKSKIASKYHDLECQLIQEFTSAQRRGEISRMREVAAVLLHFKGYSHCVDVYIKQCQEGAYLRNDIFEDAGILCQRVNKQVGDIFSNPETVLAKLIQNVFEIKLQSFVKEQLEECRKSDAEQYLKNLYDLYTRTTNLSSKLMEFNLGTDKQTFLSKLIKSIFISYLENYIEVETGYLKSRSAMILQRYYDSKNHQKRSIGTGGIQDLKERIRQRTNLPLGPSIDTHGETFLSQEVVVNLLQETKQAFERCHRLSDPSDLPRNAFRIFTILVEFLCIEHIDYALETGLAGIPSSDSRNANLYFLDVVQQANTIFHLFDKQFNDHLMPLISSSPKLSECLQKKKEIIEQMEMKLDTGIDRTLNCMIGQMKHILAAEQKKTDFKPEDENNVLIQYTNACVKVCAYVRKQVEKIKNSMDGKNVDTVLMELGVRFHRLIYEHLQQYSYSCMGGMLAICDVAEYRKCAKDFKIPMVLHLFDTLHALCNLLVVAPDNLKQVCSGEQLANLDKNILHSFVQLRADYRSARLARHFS

| Variant | effect of a mutation on the interaction |
| --- | --- |
| R242Q | with no effect |

Variants of: B3
Settings: with actn1_human ACTN1, P12814
Sequence of actn1_human ACTN1, P12814 (P12814 whole entry): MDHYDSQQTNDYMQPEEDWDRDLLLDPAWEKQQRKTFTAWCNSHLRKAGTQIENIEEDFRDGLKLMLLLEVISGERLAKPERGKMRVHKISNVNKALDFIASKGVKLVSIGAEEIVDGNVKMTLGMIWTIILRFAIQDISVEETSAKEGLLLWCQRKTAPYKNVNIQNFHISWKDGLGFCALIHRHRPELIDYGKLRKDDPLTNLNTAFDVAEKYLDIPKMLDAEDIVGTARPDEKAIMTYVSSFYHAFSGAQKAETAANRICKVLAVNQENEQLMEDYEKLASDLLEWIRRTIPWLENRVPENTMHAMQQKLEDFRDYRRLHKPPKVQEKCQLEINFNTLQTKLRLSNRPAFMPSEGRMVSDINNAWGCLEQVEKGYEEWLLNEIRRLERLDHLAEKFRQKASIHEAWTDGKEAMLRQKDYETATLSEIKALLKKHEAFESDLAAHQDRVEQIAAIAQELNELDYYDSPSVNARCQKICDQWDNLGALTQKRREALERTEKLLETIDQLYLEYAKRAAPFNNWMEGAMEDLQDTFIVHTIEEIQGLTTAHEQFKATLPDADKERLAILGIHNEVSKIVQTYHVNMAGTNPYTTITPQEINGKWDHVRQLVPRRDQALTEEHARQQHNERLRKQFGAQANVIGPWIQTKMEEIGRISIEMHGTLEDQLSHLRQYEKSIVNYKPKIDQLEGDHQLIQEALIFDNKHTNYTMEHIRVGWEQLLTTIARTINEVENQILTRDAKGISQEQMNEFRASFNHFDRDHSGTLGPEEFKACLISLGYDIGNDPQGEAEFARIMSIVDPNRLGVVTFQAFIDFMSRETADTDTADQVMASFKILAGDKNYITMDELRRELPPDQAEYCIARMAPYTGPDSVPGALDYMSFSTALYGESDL

| Variant | effect of a mutation on the interaction |
| --- | --- |
| R242Q | with no effect |

Variants of: B4
Settings: with pnma1_human PNMA1, Q8ND90
Sequence of pnma1_human PNMA1, Q8ND90 (Q8ND90 whole entry): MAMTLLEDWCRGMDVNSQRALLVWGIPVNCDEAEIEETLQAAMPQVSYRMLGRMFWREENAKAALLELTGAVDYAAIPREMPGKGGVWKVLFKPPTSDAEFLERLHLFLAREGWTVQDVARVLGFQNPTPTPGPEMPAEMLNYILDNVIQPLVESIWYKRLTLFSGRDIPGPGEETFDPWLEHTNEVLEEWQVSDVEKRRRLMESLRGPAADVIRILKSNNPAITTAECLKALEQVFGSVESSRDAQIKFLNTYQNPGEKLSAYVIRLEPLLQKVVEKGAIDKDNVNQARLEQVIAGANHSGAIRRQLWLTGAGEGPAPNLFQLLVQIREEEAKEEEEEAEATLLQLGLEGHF

| Variant | effect of a mutation on the interaction |
| --- | --- |
| R7C | with no effect |
| T344I | with no effect |

Variants of: B4
Settings: with tfcp2_human TFCP2, Q12800
Sequence of tfcp2_human TFCP2, Q12800 (Q12800 whole entry): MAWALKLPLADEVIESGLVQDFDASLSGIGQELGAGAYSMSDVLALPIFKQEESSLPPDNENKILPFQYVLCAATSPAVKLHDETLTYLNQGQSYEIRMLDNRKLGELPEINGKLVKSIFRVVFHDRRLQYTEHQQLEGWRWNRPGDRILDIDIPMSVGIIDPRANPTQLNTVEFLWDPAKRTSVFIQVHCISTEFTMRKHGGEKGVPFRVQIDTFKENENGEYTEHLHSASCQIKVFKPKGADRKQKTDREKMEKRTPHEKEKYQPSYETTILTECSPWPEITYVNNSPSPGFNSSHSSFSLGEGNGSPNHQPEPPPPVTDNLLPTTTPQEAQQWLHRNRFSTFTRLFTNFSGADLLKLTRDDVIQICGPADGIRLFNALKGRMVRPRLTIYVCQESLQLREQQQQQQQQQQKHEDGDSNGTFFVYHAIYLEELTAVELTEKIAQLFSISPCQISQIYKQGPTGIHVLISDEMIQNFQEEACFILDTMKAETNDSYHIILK

| Variant | effect of a mutation on the interaction |
| --- | --- |
| R7C | with no effect |
| T344I | with no effect |

Variants of: B5
Settings: with kctd6_human KCTD6, Q8NC69

| Variant | effect of a mutation on the interaction |
| --- | --- |
| L107V | with no effect |

Variants of: B6
Settings: with go45_human BLZF1, Q9H2G9

| Variant | effect of a mutation on the interaction |
| --- | --- |
| N197I | with no effect |
| I170V | with no effect |

Variants of: B7
Settings: with SYNE4, Q8N205-2

| Variant | effect of a mutation on the interaction |
| --- | --- |
| Y111H | with no effect |
| I164T | with no effect |

Variants of: B8
Settings: with acd_human ACD

| Variant | effect of a mutation on the interaction |
| --- | --- |
| G237D | with no effect |
| S245Y | with no effect |
| E281K | with no effect |
| P236S | disrupting interaction strength |

Variants of: B9
Settings: with goga2_human GOLGA2, Q08379
Sequence of goga2_human GOLGA2, Q08379 (Q08379 whole entry): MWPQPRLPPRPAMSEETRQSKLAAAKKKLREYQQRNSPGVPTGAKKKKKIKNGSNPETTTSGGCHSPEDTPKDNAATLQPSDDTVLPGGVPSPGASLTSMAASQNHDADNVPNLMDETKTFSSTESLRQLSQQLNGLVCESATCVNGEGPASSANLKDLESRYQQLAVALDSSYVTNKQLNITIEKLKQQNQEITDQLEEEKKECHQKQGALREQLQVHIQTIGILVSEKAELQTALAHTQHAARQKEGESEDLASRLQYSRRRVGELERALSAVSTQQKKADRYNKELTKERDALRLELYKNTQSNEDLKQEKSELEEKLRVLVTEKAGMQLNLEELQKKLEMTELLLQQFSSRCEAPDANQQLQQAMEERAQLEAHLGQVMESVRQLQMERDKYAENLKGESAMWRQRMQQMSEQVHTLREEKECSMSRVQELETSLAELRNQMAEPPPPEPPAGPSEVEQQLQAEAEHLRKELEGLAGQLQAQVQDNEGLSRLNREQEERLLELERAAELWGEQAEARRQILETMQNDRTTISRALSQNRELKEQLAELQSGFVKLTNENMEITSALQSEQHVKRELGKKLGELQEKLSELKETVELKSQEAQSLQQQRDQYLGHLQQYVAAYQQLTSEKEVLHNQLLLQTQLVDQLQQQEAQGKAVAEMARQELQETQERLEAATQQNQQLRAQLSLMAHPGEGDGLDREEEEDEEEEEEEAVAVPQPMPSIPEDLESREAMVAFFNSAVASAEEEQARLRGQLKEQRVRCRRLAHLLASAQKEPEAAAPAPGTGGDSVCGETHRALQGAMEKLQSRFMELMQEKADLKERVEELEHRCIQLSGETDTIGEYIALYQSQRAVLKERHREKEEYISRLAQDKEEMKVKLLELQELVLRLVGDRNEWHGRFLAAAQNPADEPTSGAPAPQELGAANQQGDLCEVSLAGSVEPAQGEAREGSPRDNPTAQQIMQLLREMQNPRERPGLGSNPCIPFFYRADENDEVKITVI

| Variant | effect of a mutation on the interaction |
| --- | --- |
| R395W | with no effect |
| G78E | disrupting interaction strength |

Variants of: B9
Settings: with kifa3_human KIFAP3, Q92845
Sequence of kifa3_human KIFAP3, Q92845 (Q92845 whole entry): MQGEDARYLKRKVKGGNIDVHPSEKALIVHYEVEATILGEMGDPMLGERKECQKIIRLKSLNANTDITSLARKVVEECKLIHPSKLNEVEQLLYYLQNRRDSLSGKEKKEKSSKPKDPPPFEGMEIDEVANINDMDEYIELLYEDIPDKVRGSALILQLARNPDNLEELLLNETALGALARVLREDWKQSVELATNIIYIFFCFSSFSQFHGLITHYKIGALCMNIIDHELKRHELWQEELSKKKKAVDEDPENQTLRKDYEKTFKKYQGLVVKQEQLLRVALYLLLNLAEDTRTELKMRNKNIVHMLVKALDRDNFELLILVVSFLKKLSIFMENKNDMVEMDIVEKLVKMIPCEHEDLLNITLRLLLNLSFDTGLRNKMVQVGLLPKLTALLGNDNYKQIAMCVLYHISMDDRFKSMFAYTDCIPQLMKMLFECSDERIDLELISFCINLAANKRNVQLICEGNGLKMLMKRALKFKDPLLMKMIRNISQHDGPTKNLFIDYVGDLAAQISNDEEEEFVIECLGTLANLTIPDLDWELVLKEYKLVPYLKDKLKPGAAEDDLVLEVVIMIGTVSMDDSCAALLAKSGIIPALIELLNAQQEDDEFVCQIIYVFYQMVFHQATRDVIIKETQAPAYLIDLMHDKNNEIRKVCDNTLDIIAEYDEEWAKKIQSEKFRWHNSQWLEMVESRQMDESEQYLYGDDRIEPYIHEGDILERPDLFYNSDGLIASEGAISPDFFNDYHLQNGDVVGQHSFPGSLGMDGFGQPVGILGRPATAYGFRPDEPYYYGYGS

| Variant | effect of a mutation on the interaction |
| --- | --- |
| R395W | with no effect |
| G78E | disrupting interaction strength |
